19 molecules from article PMC4297295, “Structural Conservation Despite Huge Sequence Diversity Allows EPCR Binding by the PfEMP1 Family Implicated in Severe Childhood Malaria” (Cell Host & Microbe, 2015) can be followed below.

T1: endothelial protein C receptor (EPCR), extracellular domain, biotinylated on the N-terminal BAP tag (human, UniProt Q9UNN8 18-210, biotin attached to the N-terminal BAP tag (BirA))
T1 construct: also called biotinylated recombinant EPCR; ECPR
T1 sequence: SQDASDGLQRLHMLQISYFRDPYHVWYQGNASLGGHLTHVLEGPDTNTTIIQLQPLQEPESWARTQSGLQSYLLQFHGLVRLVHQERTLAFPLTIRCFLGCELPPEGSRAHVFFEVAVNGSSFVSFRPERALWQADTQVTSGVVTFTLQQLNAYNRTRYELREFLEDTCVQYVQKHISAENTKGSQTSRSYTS

B1: CIDRα1.8b domain 2053-3 (patient isolate 2053) (domain or fragment)
chain: PICGVKCENKSCTDKENDDDCKNKKKYDPPKGVTPIDIPILYSGDKQGDITKKLEDFCYNRTKENEKTYQNWKCYYKDSEFNKCKMESKSGKSTTQEKIISFDEFFYLWVNNLLIDSIMWENDIKHCINNTNVTNCKNKCNENCKCFKNWVKKKEEEWTKVKQILGNRSENLNNYYNKLNSLFKGFFFEVVYKFNNKEEKWNKLTEKLEQKIGSSKGKEGVENPKDAIELLLDHLKENAITCKDNNSLEEDKNCPKIKINPC
B2: CIDRα1.5b domain 1983-13 (patient isolate 1983) (domain or fragment)
chain: PDCGVECNGKTCTKKEETDENCGKPPNYTIPTDVTPTDINVLYSGDEQGYITKRLSEFCGPTKNYIGKKNELWKCYYDDKQKNNNNNNNICKLQPNAHIKNENIIINFDNFFEFWVRRFLNDTIDWKYDLNTCMNFTNTTKCNNNCNKNCKCFEQWVNIKKTEWKNVTEYFFKHDETSKKKYCEILKDIFENYYVEVIEKFYKGKHKWKERIEKLKNMDCSQVKIGTNASQDQIDIFLSNLKGDATQCTSKNPKSACNKPHAARIITRATTRNPC
B3: CIDRα1.7 domain 1965-8 (patient isolate 1965) (domain or fragment)
chain: PHCGVDCNGKKCTLKSDNDPQCVNKLKYEPPYGVKPTEITVLYSADQEGDISKKLSEFCNDEKKINSKNIETWKCYYKSTYNNACKMDKNSKNHTPEVKITKFHNFFEMWIVYLLTETITWNDKLKTCMNNIKTTDCIDECNTNCVCFDKWVKQKGKEWNSIKKLFIKEQKNPKQNYGNINIYFESFFFHVMDKLNHDEAKWNELMNELKQIIDSSKANTDNKNLQDAIKVLFDHLKEIATICKDNNTNEACEDSKKETQNPC
B4: CIDRα1.1 domain 2110-3 (patient isolate 2110) (domain or fragment)
chain: CPDCVVECVGGECKQKTDDDKNCRSKIIEEILKGEEPTVIDVLYSGNGQGVITKKLHDFCSSTNKEDDKYYKKWKCYNKNSDYNNCELISSLSTDPNDPNVMLSIKCFDSWARNLLVDALKWEHQLKNCINNTNVTDCKSNCNNNCKCYEEWIKRKGREWKQVKGVIENNDEGSHYYYKNVKNLFYNFLYPVIYKLEKEEKNGKWDQFMEDLKKKIESSETNTHTTDSQDAIELLLDHLKENAITCKDNNSLEEDKNC
B5: CIDRα1.6a domain of PfEMP1 PFD1235w (domain or fragment)
chain: PECGVQCSGTTCTPKKVIHPNCKDKETYEPGDAKTTDITVLYSGDEEGDIAQKLQDFCNDKNKENDENYEKWQCYYKSSEINKCQMTPSSHKVPKHGYIMSFYAFFDLWVKNLLIDSINWKNDLTNCINNTNVTDCKNDCNTNCKCFENWAKTKENEWKKVKTIYKNENGNTNNYYKKLNNHFQGYFFHVMKELNKEEKWYKLMEDLKEKIDSSNLKNGTKDSEGAIKVLFDHLKDIAERCIDNNSKDSC
notes: also called CIDRa1.6a PFD1235w_3D7; PFD1235w (1.6a)
B6: CIDRα1.8a domain GA026_ERS010178 (domain or fragment)
chain: PDCVVDCKGAKCEQKMKPDGTCEKPQIYTRPKDVTPKIIKVLFSGDNQEDITEKLSSFCSNPKSKIDRNYQTWKCYYKSGHYNICEMKGSLYKYPEHPNDMLSVECFHLWVKNLLIDTIKWETKLKKCINNTNVTDCDNECNKNCECFENWVEQKKKEWEEVRKVYKDQKESLGIYYKKLENLFDTYYFEVMGALENEEKHGKWNQLTAKLKQIIESHKKNRHSGNSQDAIELLLDHLKETATTCKDNNSNESCDVSKDSKTNPC
notes: also called CIDRa1.8a GA026_ERS010178; GA026 (1.8a)
B7: CIDRα1.8a domain of PfEMP1 MAL6P1.316 (domain or fragment)
chain: PACVVECDGGKCEEKKNSDGTCIEAQIYTVVRDETPTPIKVLFSGDHQKDITKKLSSFCKNPESENNRDYQTWQCYYKSSDYNNCEMKGSLYKVEGDPNIIVSHECFHLWVQSLLIDTIKWETKLKKCINNTNVTNCYNKCNKNCECFENWVEQKKKEWENVNDVYKDQKQSLGIYYEKLENLFKSNFFQVMKALEGDEKGKWYQFKDDLKKKFEPSEKNTRTTDSQDAIKLILDHLKDNATTCKDNNSLEEDENC
notes: also called CIDRa1.8a MAL6P1.316_3D7; MAL6P1.316 (1.8a)
B8: CIDRα1.1 domain of PfEMP1 IT4var19 (domain or fragment)
chain: PDCVVVCEGGNCKEKTEDDNCRSEIIKKILKYETPTPIDVLYSGKGQGLITKKLEDFCSSTTNYEGTNVQKWKCYNKNKDYNNCEMNISSYKDATDPNVMLSVECFHSWAKNLLIDTIRWEHQLKNCINNTNVTDCTSKCIKNCECYEKWIKEKEKEWPQVKGVLKKKDETSHNYYDKLKDVFDRFLFEVKGALDQDEKGKWDQFTKDLEKKFGPSVESAGTANSQDAIELLLDHLNDNATTCKDNNSLAVENC
notes: also called CIDRa1.1 IT4var19_IT4; IT4var19 (1.1)
B9: CIDRα1.6b domain GA019_ERS010031 (domain or fragment)
chain: PYCGLDCVGKTCTAKQEIYPDCVYNGDYEPPNGAETTEITVLYNDNEGDMSKKLSQFCSNENKENIENYQKWKCYYKDRDDIECEMISSSQKDEKHRKVMIFYNFFDLWVKNLLRDSIKWEIELKDCINNTNVTDCKSVCNVNCECFDKWVKQKEKEWDSIKKLLKKKKNVSKKYYTNINKNFEFFFFRVMYELNNEEAKWNKLMENLRTKINSYKKNKRTKDSEGAIKVLFDHLKETATICKDNNTNEACVSSQNATTNPC
notes: also called CIDRa1.6b GA019_ERS010031; GA019 (1.6b)
B10: CIDRα1.6a domain of PfEMP1 HB3var02 (domain or fragment)
chain: PECGVQCSGTTCTPKKVIHPNCKDKETYEPGDAKTTDITVLYSGDEEGDIAQKLQDFCNDKNKENDENYEKWQCYYKSSEINKCQMTRSSKKVPKHRGVMSFYAFFDLWVKNLLIDSINWKNDLTNCINNTNVTDCNKDCNKNCVCFDQWVIKKEEEWKNVNKVFENKNIDLHDYYNKLNKHFEGYFFHVMKELNKEEKWYKLMEDLKEKIDFSKGKADGKNSEGAIKVLFDHLKEIAEKCIHNNSNESCEASTNRTPNPC
notes: also called CIDRa1.6a HB3var02_HB3; HB3var02 (1.6a)
B11: CIDRα1.7 domain of PfEMP1 IT4var22 (domain or fragment)
chain: PYCGLDCGGKTCTAKQEIYPDCVYNGAYEPPNGAETTEITVLYSADQEGDISNKLSEFCNDENNKNSQKWQCYYVSSENNGCKMEKKNANHTPEVKITKFHNFFEMWVTYLLTETITWKDKLKTCMNNTKTADCIHECNKNCVCFDKWVKQKEDEWNSIKKLFTKEKKMPKQYYGNINIYFESFFFHVMKKLNKEAKWNKLMDELRNKIELSKGNEGTKDLQDAIELLLEYLKEKSTICKDNNTNEACDPTVDPTKNPC
notes: also called CIDRa1.7 IT4var22_IT4; IT4var22 (1.7)
B12: CIDRα1.8b domain 1702-3 (patient isolate 1702) (domain or fragment)
chain: PDCIVVCDYKGCKENKNDENCKSKRTYSLPPDVNSTEIEVLFSGDNQEDIVEKLSSFCKNTNNENGENVEKWECYYESEHNNKCKMTSPKHKDEKRPTVMIFDEFFDFWVTHLIKDTIKWESDINDCINNTNVTDCDSACNENCKCFDEWVEKKEVEWGNVKKVLGNRSENLNIYYNKLNGIFSGFFFGVMHELKKKEAKQGVKAEEAQEAEETQEAQEEEAKWNKLTAKLQEIIDSSKGKADTANSQDAIKPLLEYIKETATTCIDNNSLAVENCPKTKINPC
B13: CIDRα1.6b domain GA018_ERS010570 (domain or fragment)
chain: PYCGLDCVGTECTAKEEIYPDCVYNGEYDPPKDVRPTEINVIDSGNAVNISEKLNDFCTNPTNPNDKIYQKWQCYYKSSKVNKCQMTSLTQTLQKHHYVMTFYIFFDLWVKNLLRDSVKWEIELKDCINNTNVTDCNNKCNKNCVCFDKWVKQKKKEWDSIKKLFKTEKDEMKKYYTNINKNFEFFFFRVMYELNNEEAKWNKLMENLRIKIKSSKRNKRTKDSEGVIKVLFDHLKETATICKDNNTNEACVSSQNATTNPC
notes: also called CIDRa1.6b GA018_ERS010570; GA018 (1.6b)
B14: CIDRα1.8b domain GA029_ERS010532 (domain or fragment)
chain: PDCVVVCERGNCTEKKGDDKCRKKYTYEIPAGMESTKIDILFSGENQEDITEKLRSFCKNTNNENGENIEKWECYYKNEYDNKCKMTSLKREDQKHHDLMSYYEFFDFWVTHLIKDTIKWESDINDCINNTNVTNCNNGCNENCICFEKWVGQKEKEWENVKKVLKNPSENLNNYYNKLNGIFSGFFFGVMHELKKKEAKQGVKVEKAEKSEEAQEAQEEEAKWNKLTAKLEEIIKSHKENTGTGNTQDAIEPLLKYLDENAITCKDNNSLKEDKNCPKTKKNPC
notes: also called CIDRa1.8b GA029_ERS010532; GA029 (1.8b)

The first assay concerns the target T1, endothelial protein C receptor (EPCR), …. Put plainly: SPR. Particulars: both partners purified.
In turn, B1 came in with a Kd of 4 nM, a koff of 7.65e-05 s⁻¹ and a kon of 20200 M⁻¹ s⁻¹.

For the molecule B2, the Kd amounted to 169000 nM, the koff is 0.00047 s⁻¹ and the kon stood at 2.8 M⁻¹ s⁻¹.

For the molecule B3, binding was put at a Kd of 3.5 nM, the koff amounted to 0.00021 s⁻¹ and the kon came to 59200 M⁻¹ s⁻¹.

B4 gave a Kd of 32 nM, a koff of 0.000511 s⁻¹ and a kon of 15700 M⁻¹ s⁻¹.

With B5, the equilibrium dissociation constant (Kd) came to 8.8 nM, the koff amounted to 6.62e-05 s⁻¹ and the kon worked out at 7550 M⁻¹ s⁻¹.

In the case of B6, the dissociation constant Kd amounted to 48 nM, the koff is 0.000842 s⁻¹ and the kon came to 17700 M⁻¹ s⁻¹.

Take B7: the equilibrium dissociation constant (Kd) was 50 nM, the koff is 0.000828 s⁻¹ and the kon amounted to 16700 M⁻¹ s⁻¹.

B8 showed a Kd of 16 nM, a koff of 0.000364 s⁻¹ and a kon of 22700 M⁻¹ s⁻¹.

Regarding B9, binding was characterised by a dissociation constant (Kd) of 8.8 nM, the koff amounted to 0.000328 s⁻¹ and the kon was 37000 M⁻¹ s⁻¹.

With B10, the affinity, expressed as Kd, was 1400 nM; the koff worked out at 0.00139 s⁻¹; the kon amounted to 975 M⁻¹ s⁻¹.

B11: the equilibrium dissociation constant (Kd) came to 17 nM, the koff stood at 0.00105 s⁻¹ and the on-rate constant (kon) is 61300 M⁻¹ s⁻¹.

Take B12: binding was characterised by a dissociation constant (Kd) of 6 nM, the koff stood at 2.28e-05 s⁻¹ and the kon stood at 3640 M⁻¹ s⁻¹.

In turn, B13 yielded a Kd of 15 nM, a koff of 0.000531 s⁻¹ and a kon of 35100 M⁻¹ s⁻¹.

In turn, B14 registered a Kd of 24.2 nM, a koff of 0.000158 s⁻¹ and a kon of 6550 M⁻¹ s⁻¹.

The next assay addresses endothelial protein C receptor (EPCR), extracellular domain, biotinylated on the N-terminal BAP tag (human) (UniProt Q9UNN8). Put plainly: SPR; Biacore T200; biotinylated EPCR captured on a CAP chip (Biotin Capture Kit) to 150 RU, fresh for each cycle; two-fold dilution series of each CIDRα1 injected for 240 s, dissociation 300 s; 20 mM HEPES pH 7.5, 150 mM NaCl, 0.005% Tween-20, 25°C; surface without EPCR subtracted; global fit to a 1:1 interaction model.
Settings: not given
(In general: Surface plasmon resonance follows binding to a sensor surface in real time, without labels.)
On to “HB3var03 CIDRα1.4 domain, mutant Q657K (domain or fragment)”, for which the Kd was determined as 72 nM, the dissociation rate constant (koff) came out at 0.00499 s⁻¹ and the kon came out at 68900 M⁻¹ s⁻¹.

Regarding “HB3var03 CIDRα1.4 domain, mutant F655L (domain or fragment)”, the Kd is 4.3 nM, the koff stood at 0.00063 s⁻¹ and the kon came to 145000 M⁻¹ s⁻¹.

For the molecule “HB3var03 CIDRα1.4 domain, mutant V658A (domain or fragment)”, the Kd was found to be 37 nM, the off-rate (koff) was found to be 0.000719 s⁻¹ and the kon stood at 19400 M⁻¹ s⁻¹.

In turn, “HB3var03 CIDRα1.4 domain, mutant F656V (domain or fragment)” came in with a Kd of 1.5 nM, a koff of 0.000223 s⁻¹ and a kon of 145000 M⁻¹ s⁻¹.

With “HB3var03 CIDRα1.4 domain, mutant F651A (domain or fragment)”, the dissociation constant Kd came to 2.5 nM, the koff was 0.000394 s⁻¹ and the kon came to 160000 M⁻¹ s⁻¹.

In general, Kd refers to the constant that tells how readily two partners part at equilibrium. Broadly, the koff is a measure of how fast the partners let go of each other. A low value points to a long-lived complex. As usually defined, the kon is the second-order rate constant of association. High values mean faster complex formation, low ones slower complex formation.
